Among the data in patent US20060153838A1 are relative FcγRIII (relative to parental antibody = 1.0), relative FcγRIIb (relative to parental antibody = 1.0) and relative FcγRIIa (relative to parental antibody = 1.0) values, retold here.

In experiment [1] the target is soluble human FcγRIII (biotinylated) (human) (UniProt P08637). Put plainly: ELISA screen in a manner similar to the anti-PSA library, anti-TNFα parent IgG, biotinylated soluble FcγR, normalized signal. (In general: In an ELISA, binding on a coated surface is turned into a signal by an enzyme label.)
UniProt P08637, sequence (P08637 17-208): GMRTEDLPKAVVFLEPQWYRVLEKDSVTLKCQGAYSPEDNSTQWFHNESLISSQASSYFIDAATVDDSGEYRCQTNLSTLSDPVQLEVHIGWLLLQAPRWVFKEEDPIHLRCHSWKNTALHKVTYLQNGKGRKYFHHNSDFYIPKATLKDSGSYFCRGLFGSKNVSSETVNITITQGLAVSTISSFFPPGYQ
The target of experiment [2] is soluble human FcγRIIb (biotinylated) (human) (UniProt P31994). The description is as above.
UniProt P31994, sequence (P31994 43-217): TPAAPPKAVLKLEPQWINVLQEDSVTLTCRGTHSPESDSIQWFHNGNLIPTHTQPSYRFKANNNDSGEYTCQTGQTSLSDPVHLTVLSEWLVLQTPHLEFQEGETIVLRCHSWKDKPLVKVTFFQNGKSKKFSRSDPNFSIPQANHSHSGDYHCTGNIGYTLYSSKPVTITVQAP
In experiment [3] the target is soluble human FcγRIII (biotinylated) (human) (UniProt P08637). Put plainly: ELISA: IgG captured on PSA-coated plate, biotinylated soluble FcγR, NeutrAvidin-AP, A560 background-subtracted and normalized.
Experiment [4] deals with soluble human FcγRIIb (biotinylated) (human) (UniProt P31994). The description is as above.
Experiment [5] has as its target soluble human FcγRIIa (biotinylated) (human) (UniProt P12318). Described as above.
UniProt P12318, sequence (P12318 34-217): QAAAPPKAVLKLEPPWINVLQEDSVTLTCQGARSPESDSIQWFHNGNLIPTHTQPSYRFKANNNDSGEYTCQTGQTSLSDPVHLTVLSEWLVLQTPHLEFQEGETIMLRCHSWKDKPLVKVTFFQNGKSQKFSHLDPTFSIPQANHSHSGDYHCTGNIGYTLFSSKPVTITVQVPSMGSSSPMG

In the case of “anti-TNFα IgG Fc variant K290G (antibody)”, the relative FcγRIII (relative to parental antibody = 1.0) in experiment [1] is 1.64. Also, in experiment [2], the relative FcγRIIb (relative to parental antibody = 1.0) was 1.46.

In the case of “anti-PSA IgG Fc variant S298V (antibody)”, the relative FcγRIII (relative to parental antibody = 1.0) in experiment [3] turned out to be 2.8. The relative FcγRIIb (relative to parental antibody = 1.0) in experiment [4] is 0.592.

Take “anti-PSA IgG Fc variant Y300L (antibody)”: the relative FcγRIII (relative to parental antibody = 1.0) in experiment [3] was 1.81. For the same substance, the relative FcγRIIb (relative to parental antibody = 1.0) in experiment [4] worked out at 1.36.

Turning to “anti-PSA IgG Fc variant Y300I (antibody)”, the relative FcγRIII (relative to parental antibody = 1.0) in experiment [3] is 1.38. For the same substance, the relative FcγRIIb (relative to parental antibody = 1.0) in experiment [4] stood at 1.26.

“anti-PSA IgG Fc variant S298N (antibody)”: the relative FcγRIII (relative to parental antibody = 1.0) in experiment [3] amounted to 1.42. The relative FcγRIIb (relative to parental antibody = 1.0) in experiment [4] is 0.363.

For “anti-PSA IgG Fc variant S298D (antibody)”, the relative FcγRIII (relative to parental antibody = 1.0) in experiment [3] is 2.31. The relative FcγRIIb (relative to parental antibody = 1.0) in experiment [4] stood at 0.188.

Consider “anti-PSA IgG Fc variant Q295L (antibody)”, for which the relative FcγRIII (relative to parental antibody = 1.0) in experiment [3] stood at 1.06. In experiment [5], the relative FcγRIIa (relative to parental antibody = 1.0) amounted to 1.44. Further, the relative FcγRIIb (relative to parental antibody = 1.0) in experiment [4] came out at 1.34.

Take “anti-PSA IgG Fc variant Q295K (antibody)”: the relative FcγRIII (relative to parental antibody = 1.0) in experiment [3] worked out at 1.47. Besides, the relative FcγRIIb (relative to parental antibody = 1.0) in experiment [4] amounted to 0.892.

As for “anti-PSA IgG Fc variant E294N (antibody)”, in experiment [3], the relative FcγRIII (relative to parental antibody = 1.0) is 1.14. In addition, the relative FcγRIIb (relative to parental antibody = 1.0) in experiment [4] turned out to be 0.672.

Take “anti-TNFα IgG Fc variant K290S (antibody)”: the relative FcγRIII (relative to parental antibody = 1.0) in experiment [1] worked out at 1.23. Besides, the relative FcγRIIb (relative to parental antibody = 1.0) in experiment [2] worked out at 1.4.

Consider “anti-TNFα IgG Fc variant D280H (antibody)”, for which the relative FcγRIII (relative to parental antibody = 1.0) in experiment [1] was found to be 1.24. Also, the relative FcγRIIb (relative to parental antibody = 1.0) in experiment [2] was 0.92.

Consider “anti-TNFα IgG Fc variant D280Q (antibody)”, for which the relative FcγRIII (relative to parental antibody = 1.0) in experiment [1] was 1.19. In experiment [2], the relative FcγRIIb (relative to parental antibody = 1.0) came to 0.87.

For the substance “anti-TNFα IgG Fc variant D280Y (antibody)”, the relative FcγRIII (relative to parental antibody = 1.0) in experiment [1] was 1.23. For the same substance, the relative FcγRIIb (relative to parental antibody = 1.0) in experiment [2] is 2.14.
